Target: hif1a_human HIF1A (UniProt Q16665)
Sequence (Q16665 whole entry, looked up): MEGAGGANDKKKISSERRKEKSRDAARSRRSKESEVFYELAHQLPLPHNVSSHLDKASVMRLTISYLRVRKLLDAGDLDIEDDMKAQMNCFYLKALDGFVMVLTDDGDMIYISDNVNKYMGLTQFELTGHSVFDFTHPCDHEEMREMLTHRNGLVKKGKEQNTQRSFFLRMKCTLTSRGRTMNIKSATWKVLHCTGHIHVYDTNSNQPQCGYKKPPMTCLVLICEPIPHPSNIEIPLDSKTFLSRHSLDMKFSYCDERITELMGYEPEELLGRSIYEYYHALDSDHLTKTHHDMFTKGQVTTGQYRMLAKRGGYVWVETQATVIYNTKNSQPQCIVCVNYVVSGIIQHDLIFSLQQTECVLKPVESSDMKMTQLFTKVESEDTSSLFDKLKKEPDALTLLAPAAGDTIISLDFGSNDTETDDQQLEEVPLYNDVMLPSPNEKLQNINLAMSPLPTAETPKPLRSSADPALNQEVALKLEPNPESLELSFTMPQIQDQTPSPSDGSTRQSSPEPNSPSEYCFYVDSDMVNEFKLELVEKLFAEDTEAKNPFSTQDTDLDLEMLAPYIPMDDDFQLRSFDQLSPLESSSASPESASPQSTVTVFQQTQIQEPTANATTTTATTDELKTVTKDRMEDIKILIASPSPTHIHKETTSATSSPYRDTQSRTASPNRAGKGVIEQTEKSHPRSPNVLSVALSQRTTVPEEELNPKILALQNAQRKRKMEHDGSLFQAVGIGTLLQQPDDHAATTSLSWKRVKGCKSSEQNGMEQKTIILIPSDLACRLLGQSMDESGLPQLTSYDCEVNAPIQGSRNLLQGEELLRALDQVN

Sequence of Pyruvate kinase PKM (Homo sapiens), P14618-1 P403A;P408A (P14618 whole entry P403A/P408A): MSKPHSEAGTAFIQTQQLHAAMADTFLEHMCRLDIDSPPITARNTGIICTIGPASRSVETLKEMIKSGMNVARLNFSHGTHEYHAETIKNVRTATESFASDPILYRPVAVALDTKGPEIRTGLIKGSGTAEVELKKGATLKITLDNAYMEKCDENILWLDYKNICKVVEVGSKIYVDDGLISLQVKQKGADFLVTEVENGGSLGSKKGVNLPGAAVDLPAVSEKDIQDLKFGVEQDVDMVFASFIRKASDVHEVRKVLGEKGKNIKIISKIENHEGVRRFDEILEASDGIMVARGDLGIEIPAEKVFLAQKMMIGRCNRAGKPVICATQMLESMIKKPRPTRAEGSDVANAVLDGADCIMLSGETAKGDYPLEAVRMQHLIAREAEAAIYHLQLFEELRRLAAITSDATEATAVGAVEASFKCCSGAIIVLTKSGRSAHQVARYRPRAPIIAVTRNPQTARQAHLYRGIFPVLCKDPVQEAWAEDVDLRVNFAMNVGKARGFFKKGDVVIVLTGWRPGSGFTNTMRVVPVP

effect of a mutation on the interaction: decreasing interaction strength
Substance: Pyruvate kinase PKM (Homo sapiens), P14618-1 P403A;P408A
